Among the data in PMC8048298 are Kd values, retold here.

In test [1] the target is GST-SMARCA4-F4 (aa1009-1314) (human) (UniProt P51532). Kind of test: ITC; peptide 1 mM in the syringe, protein 100 μM in the cell; 19 injections of 2 μl; PBS; 25 °C; MicroCal ITC-200. In general terms: In ITC the heat of successive injections is recorded.
The target of test [2] is Flag-tagged SMARCA4 purified from HCT116 cells (human) (UniProt P51532). Put plainly: MST; SMARCA4 protein labelled with NT-647-NHS at 100 nM; peptides 10 nM to 500 μM; PBS pH 7.4, 0.05% Tween-20; 5 min incubation; Monolith NT.115; one-site binding (Kd formula).
Test [3] deals with GST-SMARCA4-F4 (aa1009-1314) (human) (UniProt P51532). Described as above.

On to “histone H4 N-terminal 20 amino acid peptide, Arg3 asymmetrically dimethylated (H4R3me2a), C-terminal biotin (from UniProt P62805 2-21)”, for which the values for the equilibrium dissociation constant (Kd) in test [1], in test [2] and in test [3] were 2.41 µM, 6.27 µM and 5.36 µM, respectively.
